B1: 9N10 IgG1 (antibody, V domains shown)
VH: QVQLQESGGGLVHPGGSLRLSCAASGFTFSSYWMHWVRQAPGKGLVWVSRINSDGSSTSYADSVKGRFTISRDNAKNTLYLQMNSLRAEDTAVYYCARKILGVGARSRRYFDYWGQGTMVTVSS
VL: DIVLTQTPDSLAVSLGETTTINCKSSQSVLHSSNNKNYLAWYQQKPGQPPKLLIYWASTRESGVPDRFSGSGSGTDFTLTISNLQPEDVAFYYCLQYSTFPRTFGQGTKVEIKR
notes: Full length human IgG1 with kappa light chain
B2: C-9P21 IgG1 (antibody, V domains shown)
VH: B1 VH
VL: ETTLTQSPGTLSLSPGERATLSCRASQSVVSNYLAWYQQKPGQAPRLLISGASNRATGISDRFSGSGSGADFTLTISRVEPEDSAVYYCQQFDKSTWTFGQGTKVEIKR
notes: Full length human IgG1 with kappa light chain; expressed from pLNO, protein A purified, monomer by SEC; also called IgG C-9P21
B3: B-1M22 IgG1 (antibody, V domains shown)
VH: QVQLVQSGAEVKKPGSSVKVSCKASGGTFSSYAISWVRQAPGQGLEWMGGIIPIFGTANYAQKFQGRVTITADESTSTAYMELRSLRSDDTAVYYCARDRERWLQSAGDYWGQGTLVTVSS
VL: QPVLTQSPSVSVAPGQTARITCGGNNIGSKSVHWYQQKPGQAPVLVVYDDSDRPSGIPERFSGSNSGNTATLTISRVEAGDEADYYCQVWDSSSDHWVFGGGTKLTVLG
notes: Full length human IgG1 with lambda light chain; expressed from pLNO, protein A purified, monomer by SEC; also called IgG B-1M22
B4: C-9P21 scFv (scFv)
scFv: QVQLQESGGGLVHPGGSLRLSCAASGFTFSSYWMHWVRQAPGKGLVWVSRINSDGSSTSYADSVKGRFTISRDNAKNTLYLQMNSLRAEDTAVYYCARKILGVGARSRRYFDYWGQGTMVTVSSKLSGSASAPKLEEGEFSEARVETTLTQSPGTLSLSPGERATLSCRASQSVVSNYLAWYQQKPGQAPRLLISGASNRATGISDRFSGSGSGADFTLTISRVEPEDSAVYYCQQFDKSTWTFGQGTKVEIKAAAGSEQKLISEEDLNSHHHHHH
notes: VH-linker-VL scFv expressed in E. coli TG1 from pHOG21; In the migration and ADCC assays it was cross-linked with anti-cMyc antibody; also called scFv C-9P21
B5: C-1I24 IgG1 (antibody, V domains shown)
VH: QVQLVQSGGGVVQPGRSLRLSCAASGFTFSSYGMHWVRQAPGKGLEWVAVISYDGSNKYYADSVKGRFTISRDNSKNTLYLQMNSLRAEDTAVYYCAKDLPITRGTGADYWGQGTLVTVSS
VL: QSVLIQPASVSGSPGQSITISCTGTSSDVGGYNYVSWYQQHPGKAPRLMIYDVTSRPSGVSNRFSGSKSGNTASLTISGLQAEDEADYYCSSYAGSYSVVFGGGTKVTVLG
notes: Full length human IgG1 with lambda light chain; expressed from pLNO, protein A purified, monomer by SEC; also called IgG C-1I24; C-1124
B6: D-1K21 IgG1 (antibody, V domains shown)
VH: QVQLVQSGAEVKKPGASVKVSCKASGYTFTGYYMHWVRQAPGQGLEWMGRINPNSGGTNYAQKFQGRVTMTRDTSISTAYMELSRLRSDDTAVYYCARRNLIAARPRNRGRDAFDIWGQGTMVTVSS
VL: DIQMTQSPSTLSASVGDRVTITCRASQSIGGSLAWYQQKPGKGPNLLIYAASTLQSGVPSRFSGSGSGTEFTLTISSLQPEDSATYYCQHYESYPLSFGGGTKLEIKR
notes: Full length human IgG1 with kappa light chain; expressed from pLNO, protein A purified, monomer by SEC; also called IgG D-1K21
B7: C-1I24 scFv (scFv)
scFv: QVQLVQSGGGVVQPGRSLRLSCAASGFTFSSYGMHWVRQAPGKGLEWVAVISYDGSNKYYADSVKGRFTISRDNSKNTLYLQMNSLRAEDTAVYYCAKDLPITRGTGADYWGQGTLVTVSSKLSGSASAPKLEEGEFSEARVQSVLIQPASVSGSPGQSITISCTGTSSDVGGYNYVSWYQQHPGKAPRLMIYDVTSRPSGVSNRFSGSKSGNTASLTISGLQAEDEADYYCSSYAGSYSVVFGGGTKVTVLAAAGSEQKLISEEDLNSHHHHHH
notes: VH-linker-VL scFv expressed in E. coli TG1 from pHOG21; also called scFv C-1I24; C-1124
B8: B-1M22 scFv (scFv)
scFv: QVQLVQSGAEVKKPGSSVKVSCKASGGTFSSYAISWVRQAPGQGLEWMGGIIPIFGTANYAQKFQGRVTITADESTSTAYMELRSLRSDDTAVYYCARDRERWLQSAGDYWGQGTLVTVSSKLSGSASAPKLEEGEFSEARVQPVLTQSPSVSVAPGQTARITCGGNNIGSKSVHWYQQKPGQAPVLVVYDDSDRPSGIPERFSGSNSGNTATLTISRVEAGDEADYYCQVWDSSSDHWVFGGGTKLTVLAAAGSEQKLISEEDLNSHHHHHH
notes: VH-linker-VL scFv expressed in E. coli TG1 from pHOG21; also called scFv B-1M22

What was measured:
[1] = target: T1, CXC chemokine receptor 4 (CXCR4), human (human, UniProt P61073 1-352); test: cell-based or functional assay
[2] = target: T1, CXC chemokine receptor 4 (CXCR4), human; test: EasyCyte flow cytometry, IgG titration (12 points, three-fold) on Ramos cells naturally expressing CXCR4; RPE goat anti-human IgG detection
Method: The cells were harvested from culture flasks, washed 2 times with PBS (350×g, 5 min, 4° C.) and resuspended in PBS containing 0.2% BSA and 0.09% NaN₃. 1×10⁵ cells per well were aliquoted into V-shaped 96-well plates (Greiner Bio-One, Frikenhausen, Germany). The cells were centrifuged (350×g, 5 min, 4° C.) and resuspended in 50 μl IgG (50 μg/ml) in PBS containing 0.2% BSA and 0.09% NaN₃. Titration was done in twelve points and three fold dilution. […] Cells were washed, resuspended in 200 μl PBS with 0.2% BSA and 0.09% NaN₃, and transferred to a U-shaped 96 well Costar (Corning, Schiphol-Rijik, The Netherlands) plate for flow cytometry using an Easy Cyte device (Guava Technologies, Hayward, Calif., USA).

[3] = target: T1, CXC chemokine receptor 4 (CXCR4), human; test: flow cytometry (EasyCyte), IgG1 10 µg/ml on CCRF-CEM cells; PBS negative control 3.11
Method: The natural CXCR4⁺ expressing cell line CCRF-CEM was harvested from the culture flasks, washed 2 times with PBS supplemented with 0.2% BSA and 0.09% NaN₃ buffer and aliquoted at 1×10⁵ cells per well into V-shaped 96-well plates (Greiner Bio-One, Frickenhausen, Germany). Cells were pelleted by centrifugation (400 g, 5 min) and then incubated for 60 min at 4° C. with 50 μl IgGs diluted to 10 μg/ml in PBS supplemented with 0.2% BSA and 0.09% NaN₃ buffer. The supernatants were aspirated after a centrifugation step at 400 g for 5 min and the cells were washed another two times with 100 μl PBS supplemented with 0.2% BSA and 0.09% NaN₃ each wash was followed by a centrifugation step (5 min at 400 g). After, the cells were stained for 30 minutes at 4° C. with 50 μl of rPE-conjugated Goat anti-human IgG (AbD Serotec) diluted to 5 μg/ml in with PBS supplemented with 0.2% BSA and 0.09% NaN₃ and incubated for 30 minutes at 4° C. The cells were washed again and re-suspended in 200 μl PBS with 0.2% BSA and 0.09% NaN₃ and transferred to a U-shaped 96-well plate (Corning) for flow cytometry using an EasyCyte device (Guava Technologies, Hayward, Calif., USA).

[4] = target: T1, CXC chemokine receptor 4 (CXCR4), human; test: cell-based or functional assay; remark: listed apart in the source
[5] = target: T2, monkey (Macaca mulatta) CXCR4 (monkey (Macaca mulatta), UniProt P79394 1-352); test: EasyCyte flow cytometry on HEK293T/17 cells transiently transfected with Macaca mulatta CXCR4, Fugene without DNA as negative control; scFv level according to the example, amount not given
T2 construct: whole, on cells; also called monkey CXCR4; monkey antigen
Method: FACS-binding analyses (EasyCyte) were performed using HEK-293 cells transiently transfected with plasmids encoding either, mouse (Gene bank accession number BC031665) or monkey (Macaca mulatta) CXCR4 (NCBI Accession number NP_001036110). Two experiments were performed, one using a-cMyc and PE-labelled goat anti-mouse IgG antibody, the second using a directly conjugated RPE-c-Myc antibody for detection. In addition, cross-reactivity on IgG level was analysed. In the latter case, antibody binding was detected with PE-conjugated goat anti-human IgG antibody.

[6] = target: T1, CXC chemokine receptor 4 (CXCR4), human; test: EasyCyte flow cytometry, 0.5 µg scFv on 1x10^5 CXCR4-transfected versus non-transfected HEK293T cells; anti-cMyc and RPE goat anti-mouse IgG detection
Method: The DT40+CXCR4, HEK293+CXCR4, DT40 and HEK293 cells were harvested from culture flasks, washed 2 times with PBS (400×g, 5 min, 4° C.) and resuspended in PBS containing 0.2% BSA and 0.09% NaN₃. 1×10⁵ cells per well were aliquoted into V-shaped 96-well plates (Greiner Bio-One, Frikenhausen, Germany). The cells were centrifuged (400×g, 5 min, 4° C.) and resuspended in 50 μl ScFvs (10 μg/ml) in PBS containing 0.2% BSA and 0.09% NaN₃. […] After 1 hour incubation (4° C.), the cells were washed three times with 100 μl PBS with 0.2% BSA and 0.09% NaN₃ and incubated for 30 minutes at 4° C. with RPE conjugated goat anti-mouse IgG (F0479, Dako, Denmark) diluted to 5 μg/ml in PBS with 0.2% BSA and 0.09% NaN₃. Cells were washed, resuspended in 200 μl PBS with 0.2% BSA and 0.09% NaN₃, and transferred to a U-shaped 96 well Costar (Corning, Schiphol-Rijik, The Netherlands) plate for flow cytometry using an Easy Cyte device (Guava Technologies, Hayward, Calif., USA).

T2 sequence (P79394 whole entry): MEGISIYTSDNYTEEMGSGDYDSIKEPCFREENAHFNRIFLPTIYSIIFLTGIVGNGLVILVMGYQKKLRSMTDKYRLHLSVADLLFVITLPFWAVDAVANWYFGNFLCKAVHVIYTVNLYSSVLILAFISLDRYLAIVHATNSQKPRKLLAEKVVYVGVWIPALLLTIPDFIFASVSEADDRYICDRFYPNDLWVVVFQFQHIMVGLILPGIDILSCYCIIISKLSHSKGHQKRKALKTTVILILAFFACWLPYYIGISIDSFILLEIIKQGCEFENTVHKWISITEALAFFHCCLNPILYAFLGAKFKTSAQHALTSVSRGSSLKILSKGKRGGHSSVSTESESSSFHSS
T1 sequence (P61073 whole entry): as the sequence (P79394 whole entry) above, with I24M, H35N, R38K, K146R, S176N, D214V counted along it

Binder	median value (EasyCyte fluorescence) [3]	ADCC, EC50 (ng/mL), IgG [4] [ng/mL]	ADCC, EC50, IgG, molar [4] [nM]	ADCC, Max killing (%), CCRF-CEM cells with human PBMCs, IgG [4] [%]	binding result [5]	further results
B1						IC50 of inhibition of SDF-1α induced calcium flux, CCRF-CEM cells, IgG [1]: 3.85 nM; fold efficiency in inhibition of calcium flux against C-9P21 IgG [1]: ~8 fold; EC50 (read off the curve) [2]: ~10 nM
B2	626	1850	12.3	63.5		IC50 of inhibition of SDF-1α induced calcium flux, CCRF-CEM cells, IgG [1]: 29 nM
B3	1080	116	0.8	100		
B4					binds	IC50 of inhibition of SDF-1 induced migration of CCRF-CEM cells (Boyden chamber; scFv cross-linked with anti-cMyc) [1]: 2.9 µg/mL; IC50 of inhibition of ligand induced migration of CCRF-CEM cells, molar [1]: ~100 nM; ADCC, EC50 (ng/mL), scFv cross-linked with chimeric anti-cMyc IgG1 [4]: 2.7 ng/mL; ADCC, EC50, scFv, molar [4]: 0.09 nM
B5	911	49.2	0.3	65		CDC of Ramos cells in presence of human serum, EC50, IgG [1]: 0.7 µg/mL
B6	179	79.9	0.5	25.7		
B7					binds	binding result [6]: binds
B8					binds	

Reference: patent US20160244527A1 (AFFITECH RESEARCH, published 2016)
